Source: patent US20240158515A1 (Regeneron, published 2024)

B1: H4H30066P (antibody, human IgG4 S228P, kappa, V domains shown)
VH: QVQLVQSGAEVKKPGASVKVSCKVSGYTLTELSMHWVRQAPGKGLEWMGGFDPEDGEIIYAQKFQGRVTMTEDTSTDTAYMDLSSLTSEDTAVYYCATEKQQLVRKYYFYYGLAVWGQGTTVTVSS
VL: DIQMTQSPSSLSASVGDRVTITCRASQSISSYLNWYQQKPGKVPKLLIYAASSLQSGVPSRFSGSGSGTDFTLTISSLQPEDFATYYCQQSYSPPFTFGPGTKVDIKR
notes: HCVR 22, LCVR 30
B2: H4H30108P2 (antibody, human IgG4 S228P, kappa, V domains shown)
VH: QVQLVQSGAEVKKPGASVKVSCKASGYTFNSYDVNWVRQATGQGLEWMGWMNPHSGNTGYAQKFQGRVTMTRDTSTSTSYMELSSLTSEDTAVYYCARGPFSLLSAEFFQHWGQGTLVTVSS
VL: not shown
B3: H4H30089P2 (antibody, human IgG4 S228P, kappa, V domains shown)
VH: EVQLVESGGGLVQPGGSLRLSCIVSGFIFSSYEMSWLRQAPGKGLEWISYISSSGRVIYYADSVKGRFTISRDSAKNSLYLEMNSLRAEDTAIYYCTRKWDSSGPFDFWGQGTLVTVSS
VL: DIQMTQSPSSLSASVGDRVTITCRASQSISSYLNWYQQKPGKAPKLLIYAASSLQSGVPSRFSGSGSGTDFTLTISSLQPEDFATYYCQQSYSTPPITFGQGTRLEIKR
notes: HCVR 62, LCVR 70
B4: H4H30071P (antibody, human IgG4 S228P, kappa, V domains shown)
VH: QVQLQQSGPGLVKPSQTLSLTCAISGDSVSRNSAAWNWIRQSPSSGLEWLGRTYYRSKWFYDYAISVKSRITVNPDTSKNQFSLHLNSVTPEDTAVYYCARGYGGYEDYFDYWGQGTLVTVSS
VL: DIQMTQSPSSVSASVGDRVTITCRASQGISSWLAWYQQKPGKAPKLLIYGASSLQSGVPSRFSGSGSGTDFTLTISSLQPEDFATYFCQQGSSFPYTFGQGTKLEIKR
notes: HCVR 42, LCVR 50

Columns and labels:
[1] = biological target: T1, cynomolgus FGFR3b expressed with a C-terminal myc-myc-hexahistidine tag (mfFGFR3b.mmH) (cynomolgus); assay: SPR Biacore, mAb captured on anti-hFc, 25C
T1 construct: also called REGN3521; mf FGFR3b ecto (R357G)(E23-G377;R357G).mmH
T1 chain: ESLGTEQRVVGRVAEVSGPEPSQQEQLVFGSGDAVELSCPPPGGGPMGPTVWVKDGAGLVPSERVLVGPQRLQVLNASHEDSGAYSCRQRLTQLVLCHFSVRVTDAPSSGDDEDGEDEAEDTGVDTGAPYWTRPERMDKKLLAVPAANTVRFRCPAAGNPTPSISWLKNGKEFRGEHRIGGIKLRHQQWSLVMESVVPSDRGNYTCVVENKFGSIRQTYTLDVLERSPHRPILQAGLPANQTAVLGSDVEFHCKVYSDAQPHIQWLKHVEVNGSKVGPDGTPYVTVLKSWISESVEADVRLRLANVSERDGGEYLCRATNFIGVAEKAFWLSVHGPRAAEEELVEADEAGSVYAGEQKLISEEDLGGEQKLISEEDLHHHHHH
Experimental: (§1) The CM5 Biacore sensor surface was derivatized by amine coupling with a monoclonal mouse anti-human Fc monoclonal antibody (REGN2567). […] Antibody-reagent association was monitored for 5 minutes while dissociation in HBS-EP running buffer was monitored for 10 minutes. At the end of each cycle, the anti-FGFR3 antibody capture surface was regenerated using a 10 sec injection of 20 mM phosphoric acid. All binding kinetics experiments were performed at 25° C.
(§2) The specific SPR-Biacore sensorgrams were obtained by a double referencing procedure. The double referencing was performed by first subtracting the signal of each injection over a reference surface (anti-hFc) from the signal over the experimental surface (anti-hFc-captured anti-FGFR3 antibodies) thereby removing contributions from refractive index changes. In addition, running buffer injections were performed to allow subtraction of the signal changes resulting from the dissociation of captured antibodies from the coupled anti-hFc surface. Kinetic association (kₐ) and dissociation (kd) rate constants were determined by fitting the real-time sensorgrams to a 1:1 binding model using Scrubber v2.0c curve fitting software.

[2] = biological target: T2, murine FGFR3b expressed with a C-terminal myc-myc-hexahistidine tag (mFGFR3b.mmH) (murine); assay: SPR Biacore, mAb captured on anti-hFc, 25C
T2 construct: also called REGN3215; monomeric murine FGFR3b
T2 chain: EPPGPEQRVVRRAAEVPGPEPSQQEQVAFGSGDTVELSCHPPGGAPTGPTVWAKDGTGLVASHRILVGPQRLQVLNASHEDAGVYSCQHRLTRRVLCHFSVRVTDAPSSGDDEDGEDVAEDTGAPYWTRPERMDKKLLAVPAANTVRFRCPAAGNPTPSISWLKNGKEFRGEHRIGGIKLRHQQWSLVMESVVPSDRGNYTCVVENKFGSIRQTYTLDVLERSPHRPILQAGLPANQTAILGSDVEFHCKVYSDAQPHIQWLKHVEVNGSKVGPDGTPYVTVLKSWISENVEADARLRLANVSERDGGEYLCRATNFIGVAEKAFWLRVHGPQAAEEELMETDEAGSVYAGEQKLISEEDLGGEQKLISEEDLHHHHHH
Experimental: as §1, §2

[3] = biological target: T3, human FGFR3c expressed with a C-terminal myc-myc-hexahistidine tag (hFGFR3c.mmH) (human, UniProt P22607 23-375); assay: SPR Biacore, mAb captured on anti-hFc, 25C
T3 construct: also called REGN3155; monomeric human FGFR3c
Experimental: as §1, §2

[4] = biological target: T4, human FGFR3b expressed with a C-terminal myc-myc-hexahistidine tag (hFGFR3b.mmH) (human); assay: SPR Biacore, mAb captured on anti-hFc, 25C
T4 construct: also called REGN3152; monomeric human FGFR3b
T4 chain: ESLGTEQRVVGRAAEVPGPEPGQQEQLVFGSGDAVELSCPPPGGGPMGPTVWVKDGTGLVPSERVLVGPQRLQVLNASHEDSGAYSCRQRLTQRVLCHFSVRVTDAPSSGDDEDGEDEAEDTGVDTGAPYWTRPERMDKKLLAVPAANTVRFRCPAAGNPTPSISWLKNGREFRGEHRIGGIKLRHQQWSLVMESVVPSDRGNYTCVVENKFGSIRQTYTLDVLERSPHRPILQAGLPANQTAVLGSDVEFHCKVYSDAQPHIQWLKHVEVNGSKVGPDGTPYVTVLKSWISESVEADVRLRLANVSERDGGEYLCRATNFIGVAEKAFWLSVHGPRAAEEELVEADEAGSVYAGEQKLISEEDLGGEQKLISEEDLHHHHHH
Experimental: as §1, §2

[5] = biological target: T5, human FGFR3b expressed with a C-terminal murine Fc tag (hFGFR3b.mFc) (human); assay: SPR Biacore, mAb captured on anti-hFc, 25C
T5 construct: called dimeric; also called REGN3153; dimeric human FGFR3b
T5 chain: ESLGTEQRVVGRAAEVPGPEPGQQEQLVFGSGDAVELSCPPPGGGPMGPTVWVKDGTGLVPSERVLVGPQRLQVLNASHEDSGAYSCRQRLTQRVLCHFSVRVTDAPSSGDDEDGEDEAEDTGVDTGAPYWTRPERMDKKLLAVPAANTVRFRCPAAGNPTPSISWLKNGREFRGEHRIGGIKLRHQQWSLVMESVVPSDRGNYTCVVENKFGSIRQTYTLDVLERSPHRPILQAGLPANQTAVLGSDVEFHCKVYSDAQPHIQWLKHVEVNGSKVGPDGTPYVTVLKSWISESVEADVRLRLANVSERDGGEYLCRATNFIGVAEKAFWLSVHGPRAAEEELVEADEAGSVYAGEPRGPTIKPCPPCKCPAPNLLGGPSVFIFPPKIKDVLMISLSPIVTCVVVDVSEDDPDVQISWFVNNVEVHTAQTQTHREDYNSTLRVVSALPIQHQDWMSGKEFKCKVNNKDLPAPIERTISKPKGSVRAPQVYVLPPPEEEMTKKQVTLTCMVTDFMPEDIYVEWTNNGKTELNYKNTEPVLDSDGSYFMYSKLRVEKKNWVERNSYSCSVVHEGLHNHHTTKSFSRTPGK
Experimental: as §1, §2

[6] = biological target: T3, human FGFR3c expressed with a …; assay: SPR Biacore, mAb captured on anti-hFc, 25C; row marked NB
Experimental: as §1, §2

[7] = biological target: T5, human FGFR3b expressed with a …; assay: competition ELISA: 4 nM hFGFR3b-mFc binding to plate-coated hFGF acidic
Experimental: The fixed concentration of hFGFR3b or hFGFR3c proteins was selected to be near the concentration that generated 50% of the maximal binding (EC₅₀ value) to plate-adhered hFGF acidic or hFGF basic protein. […] The plates were then developed using TMB substrate solution (BD Biosciences) according to the manufacturer's recommended procedure and absorbance at 450 nm was measured on a Victor X5 plate reader.
Binding data were analyzed using a sigmoidal (four-parameter logistic) dose-response model using GraphPad Prism software. […] Percent blocking of FGFR3 antibody at a given concentration was calculated based on the formula shown below.
The ability of anti-FGFR3 antibodies to block human FGFR3b binding to hFGF acidic protein or hFGFR3c binding to hFGF acidic or hFGF basic proteins was evaluated using a sandwich ELISA-based blocking assay.

Binder | 90 nM mfFGFR3b.mmH Bind (RU) [1] [RU] | Kd [1] [nM] | koff [1] [s⁻¹] | kon [1] [M⁻¹ s⁻¹] | t½ [1] [min] | 90 nM mFGFR3b.mmH Bind (RU) [2] [RU] | Kd [2] [nM] | koff [2] [s⁻¹] | kon [2] [M⁻¹ s⁻¹] | t½ [2] [min] | 90 nM hFGFR3b.mmH Bind (RU) [4] [RU] | Kd [4] [nM] | koff [4] [s⁻¹] | kon [4] [M⁻¹ s⁻¹] | t½ [4] [min] | 30 nM hFGFR3b.mFc Bind (RU) [5] [RU] | koff [5] [s⁻¹] | kon [5] [M⁻¹ s⁻¹] | t½ [5] [min] | 90 nM hFGFR3c.mmH Bind (RU) [6] [RU] | other results
B1 | 203 | 1.99 | 0.000779 | 391000 | 14.8 | 64.6 | 16.9 | 0.00487 | 288000 | 2.4 | 224 | 1.28 | 0.000635 | 496000 | 18.2 | 282 | ≤ 1e-05 | 632000 | ≥ 1160 | 0.5 | binding result [3]: no binding (tested: 90 nM); Kd [5]: ≤ 0.0158 nM; % Blocking at 200 nM mAb [7]: 90%; IC50 [7]: 3.2 nM
B2 | 212 | 0.909 | 0.000136 | 149000 | 85.2 | 121 | – | 0.00199 | 162000 | 5.8 | 227 | – | 0.000159 | 176000 | 72.6 | 213 | ≤ 1e-05 | 311000 | ≥ 1160 | -2.5 | –
B3 | 147 | 10.3 | 0.00221 | 216000 | 5.2 | 60 | 8.45 | 0.00238 | 281000 | 4.9 | 152 | 10.2 | 0.00282 | 276000 | 4.1 | 214 | 1.9e-05 | 312000 | 608 | -6.7 | Kd [5]: 0.061 nM; % Blocking at 200 nM mAb [7]: 68%; IC50 [7]: 15 nM
B4 | 233 | 0.123 | 2.22e-05 | 180000 | 520 | 174 | 7.65 | 0.00169 | 220000 | 6.9 | 253 | 0.137 | 2.96e-05 | 216000 | 390 | 236 | ≤ 1e-05 | 322000 | ≥ 1160 | -4.8 | Kd [5]: ≤ 0.031 nM; % Blocking at 200 nM mAb [7]: 88%; IC50 [7]: 3.6 nM
